Test results published in publication PMC6908506, “Development of Foot-and-Mouth Disease Virus-Neutralizing Monoclonal Antibodies Derived From Plasmablasts of Infected Cattle and Their Germline Gene Usage” (Frontiers in Immunology, 2019).
Positions count from the first letter of the chain named.

Target: FMDV O/Mya/98 146S antigen (Foot-and-mouth disease virus serotype …, UniProt G8JKC2, strain)
Test: cell-based or functional assay

B1: B66 (antibody, V domains shown)
VH: QVQLRESGPSLVKPSQTLSLTCTVSGFSLTTYSVNWVRQTPGKALECLGGITSGGNAYYQPSLKSRLSITKDNSKNQVSLSINSATPEDTATYYCGKLSGTGVCEGGCACGHDPHVDAWGQGVLVTVSS
VL: QAVLTQPSSVSGSLGQRISITCSGSSNNVGLYNVGWYQQIPGSGLRTIIYAGDRRPSGVPDRFSGSEFGDTATLTISSLQAEDEADYFCVTYDSTISAAVFGSGTTLTVL
**Q.** For B1, which “virus neutralizing test on BHK-21 cells, IC50” value (“virus neutralizing test” below) is on record?
**A.** 3.13 µg/mL

B2: B73 (antibody, V domains shown)
VH: QVQLRESGPSLVKPSQTLSLTCTVSGFSLSSYDVGWVRQAPGKALECLGSITNRGKTGYNPALKSRLSITKDNSKSQVSLSLNSVTTEDTATYYCAKLNSGGYGIDGNGCYAFGSNYNLYVDAWGQGLLITVSS
VL: QAVLTQPSSVSGSLGQRVSITCSGSSSNLGTYNVGWYQQVPGSGLRTIIYGSSSRPSGVPDRFSGSRSGNTATLTISSLQAEDEADYFCTAYDHSISTAVSGSGTTLTVL
**Q.** Which “virus neutralizing test” value does the source give for B2 here?
**A.** 3.28 µg/mL

B3: F28 (antibody, V domains shown)
VH: QVQLRESGPSLVKPSQTLSLTCTVSGFSLNTYSVYWVRQVPGKALECIGGISSREARGYNPALKPRLSITKDNSKSQVSLSLSSVTTDDTATYYCAKAARGYAFTCGGISSHSDHYVDAWGQGLLVTVSS
VL: QAVLTQPSSVSGSLGQRVSISCSGSSSNVGTGNHVSWFQQIPGSAPRTLIYGATRRLSGVPDRFSGSRSGNTATLTISSLQAEDEADYFCASWQSDSTTVFGSGTTLTVL
**Q.** How did the “virus neutralizing test” value turn out when B3 was run?
**A.** 3.33 µg/mL

B4: A19 (antibody, V domains shown)
VH: QVQLRESGPSLVKPSQTLSLTCTTSGFSLSSYAVGWVRQAPGKALEWVGGISSGGKTCPSPALKTRLSITKLNSRGQVSLSVGSVSTEDTATYYCVKFFSGGWTYSCYGIDFGSVDAWGQGVLVTVSS
VL: QAVLTQPSSVSGSLGQRVSITCSGSSNNIGSYGVGWYQQVPGSGLRTIIYGSTSRPSGVPDRFSGSKSGNTATLTISSLQAEDEADYFCAAGDDSSSSVDVFGSGTTLTVL
**Q.** For B4, which “virus neutralizing test” value is on record?
**A.** 17.9 µg/mL

B5: C5 (antibody, V domains shown)
VH: QVQLRESGPSLVKPSQTLSLTCTVSGFSLSSYGVGWVRQAPGRALEFLADIYSDGSTTYNLALKSRLSIMKDNSKSEVSLSLSSVTTEDTATYYCAKSSRGVGWGDGLHYNENDAGAWGQGLLVTVSS
VL: QAVLSQPPSVSGSLGQTVTIPCTGSSNNIGILGVSWYQQIPGSAPRTLVYNNNKRPSGVADRFSGTKSGNTGTLTIASLQAEDEADYYCASADPNFGGGTRVTVL
**Q.** With B5 as the binder, how does the “virus neutralizing test” value read?
**A.** 4.69 µg/mL

B6: B74 (antibody)
VH: QVQLRESGPGLVKPSQTLSLTCTASGFSLSIKAVGWVRQAPGKALEWLGSIDTGGNTGYNPGLKSRLSITKDNSKSQVSLSLSSVTTEDSATYYCATVHQETKKSCSDGYYYRNECGAYGDCTVGNCCCSYASDYCNWCDFRRVTPTYTYEHHVEAWGQGLLVTVSS
VL: QAVLTQPSSVSGSLGQRVSITCSGSSGNVGNGYVSWYQLIPGSAPRTLIYGDTTRVSGVPDRFSGSRSGNTATLTISSLQAEDEADYFCASAEDSSNNAVFGSGTTLTVL
**Q.** For B6, which “virus neutralizing test” value is on record?
**A.** 7.81 µg/mL

B7: E50 (antibody)
VH: QVQLRESGPSLVKPSQTLSLTCTASGFSLSDKAVGWVRQAPGKALEWLGSVDTSGSTGYNPGLESRLIITKDNSKSRVSLSVHSVTSEDSATYYCVTVHQKSRDEKSCPDGYIDGAGCKYGWPCSDQDCCVCSSCVYGYSGMNCVPARYSESYEWNVEAWGQGLLVTVSS
VL: B6 VL with G27T, V56A, F88S, N97S
**Q.** For B7, which “virus neutralizing test” value is on record?
**A.** 11.5 µg/mL

B8: E54 (antibody)
VH: QVHLRESGPSLVKPSQTLSLTCTASGFSLSDRAVGWVRQAPGKALEWLGSIDTGGTTGYNPGLKSRLRITKDNSKSQVSLSVSTVTTDDSATYYCGAVYQTTETKTTCPEGYSNTGDCDDDCCCWGSDCSRYARWKRYRGGWFSSDYIVTEVYEFHVDAWGQGLLVSVSS
VL: B6 VL with G27S, A44T, T54S, R55P, V56A, S77I, L79F, N97S, A99V
**Q.** Which “virus neutralizing test” value does the source give for B8 here?
**A.** 3.65 µg/mL

B9: F103 (antibody)
VH: QVQLRESGPSLVKPSQTLSLTCTASGFSLSDKAVGWVRQAPGKALEWLGSIDTGGNSGYNPGLKSRLSITKDNSKSQASLSVSSVITGDSATYYCAIVHQETVRKTSGSDAYTCPDGCVLSPACSRERRCLCGTWPRDYCVDHIQSSTYNFYVEAWGQGLLVTVSS
VL: B6 VL with G12E, S25I, G27S, N28S, T54S, V56A, E93D, D94G, N97S, V100I
**Q.** How did the “virus neutralizing test” value turn out when B9 was run?
**A.** 6.22 µg/mL

B10: E34 (antibody, V domains shown)
VH: QVQLRESGPSLVKPSQTLSLTCTVSGFSLNDYNVGWVRQAPGKALECLGGYKADGSTNYNSALKSRLSITKDSSKKQVSLSLSSVTTEDTATYYCAKCPSRWGCDYCDNYDFWGQGLLVTVSS
VL: B6 VL with G27S, N28D, N31K, I40M, A44G, T54S, V56I, E93D, N97S
**Q.** How did the “virus neutralizing test” value turn out when B10 was run?
**A.** 3.13 µg/mL

B11: B83 (antibody)
VH: QVQLRESGPSLVKPSQTLSLTCTASGFSLSDKAVGWVRQAPGKALEWLGSIDTGGSTGYNPGLKSRLSITKDTSKTQVSLSVSSVTTEDSATYYCTNVHQKTTTERSCPDLGYKYECGNNCCWYSSCRGCIQGTYTSTYNFYVHAWGQGLRVTVSS
VL: B6 VL with G27S, A44G, T54S, V56A, A92T, N97S, A99V
**Q.** For B11, which “virus neutralizing test” value is on record?
**A.** 12.2 µg/mL

B12: F169 (antibody, V domains shown)
VH: QVQLRESGPSLVKPSQTLSLTCTVSGFSLSTYGVAWVRQAPGKALEWIGGISGRGSGSEYYNPPLQSRLSITKDTSRSQVFLSVRTVAPEDTATYYCVKCIDSWCNYDDSGDIDAWGQGLLVTVSS
VL: QAVLTQPSSVSGSLGQRVSITCSGSTSNIGKCDVGWYQRVPESGLRTIIYGNSKRPSGVPDRFSGSKSGTVATLTISSLQAEDEAEYFCATGDYSLRTAVFGSGTTLIVL
**Q.** B12 was tested. Which “virus neutralizing test” value did it give?
**A.** 5.56 µg/mL

B13: F128 (antibody, V domains shown)
VH: QVQLRESGPSLVKPSQTLSLTCTVSGFSLGTYTVTWVRQAPGKALEWVGEISGGGDTDYNPALKSRLSITKHNSKSQVSLSVSSVTPEDTATYYCARCYSTCGCGLSCTSEDSYYVNAWGQGLLVTVSS
VL: QAVLTQPSSVSGSLGQRVSITCSGSSSNIGSYNVGWYQQVPGSGLTTIIYGTNNRPSGVPDRFSGSKSGNTATLTISSLRAEDEADYFCVTYDSTSSTIFGTGTTLTVL
**Q.** How did the “virus neutralizing test” value turn out when B13 was run?
**A.** 0.98 µg/mL

B14: B57 (antibody, V domains shown)
VH: QVQLRESGPSLVKPSQTLSLTCTVSGFSLSGYAVTWVRRAPGQALECLGGISRGGLTNNNPALRSRVSITKDDSKSQVSLSVSTVTPEDTATYYCVRLGATKFGDYGCYGYGLYVDTWGQGLPVTVSS
VL: QAVLTQPSSVSGSLGQRVSITCSGSSSNIGRHGVSWYQQVPGSGLRTIIYSGNSRPSGVPDRFSGSKSGNTATLTISSLLAEDEADYFCAADDIVSRTTFFGSVTTLTVL
**Q.** For B14, which “virus neutralizing test” value is on record?
**A.** 2.6 µg/mL

B15: C9 (antibody, V domains shown)
VH: QVQLRESGPSPVKPSQTLSLTCTVSGFSLSSYAVAWVRQAPGKALEWVAGISGGGSTSYNAALKSRLRITKDNSKSQVALSLSSVTSEDTATYYCVKCANDYGSYFCYNYDYGYDFYVDAWGQGLLVTVSS
VL: QAVLTQPSSVSGSLGQRVSITCAGSSSNIGTYSVGWYQQVPGSGLTTIIYETTGRPKGVPDRFSGSKSGNTATLTITSLQAEDEADYFCVTYELGSGAVFGSGTTLTVL
**Q.** With B15 as the binder, how does the “virus neutralizing test” value read?
**A.** 1.82 µg/mL

B16: C4 (antibody, V domains shown)
VH: QVQLRESGPSLVKPSQTLFLTCTVSGFSLTSYSVNWVRQTPGKMLECLGGIATSGSTGYNPVLKSRLRITKDNSKSQVSLSVSNVTPEDTATYYCAKWSSRGGYDCGVHSSDYSYLDAWGQGLLVTVSS
VL: QAVLTQPSSVSASLGQRVSITCSGSSSNIGRYGATWYQQVPGSGLRTIIYGSSRRPSGVPDRFSGSKSGNTVTLTISSLQPEDEADYFCAAYDISTNAVFGSGTTLTLL
**Q.** With B16 as the binder, how does the “virus neutralizing test” value read?
**A.** 2.86 µg/mL

B17: B77 (antibody, V domains shown)
VH: QVQLRESGPSLVKPSQTLSLTCTISGFSLSSYTIGWVRQAPGKALEWIGDMSNGGMPYYNPALKSRLSITKHNSKSQVRLSVSSVTPEDTATYYCAKSRYTGDGSIGLYGVDAWGQGLLITVSS
VL: QAVLTQPSSVSGSLGQRVSITCSGTYSNVGTGNYVSWFQQIPGSAPRTLIYSVTNRASGVPDRFSGSRSGHTATLTISSLQAEDEADYFCLSWQSGNTALFGSGTTLTVL
**Q.** B17 was tested. Which “virus neutralizing test” value did it give?
**A.** 3.91 µg/mL

B18: A35 (antibody, V domains shown)
VH: QVQLRESGPSLVKPSQTLSLTCTVSGFSLSSNGVIWVRQAPGKALEWLGGICGGGSTSFNPSLKSRLTITKDNSKNQVSLSVRSVTPEDTATYYCARSCGSYRDAWYDCASDGYRYHNYVDAW
VL: QAVLTQPSSVSGSLGQRVSITCSGSNNNIGSYAVGWYQQVPGSGLRTIIYGSTIRPSGVPDRFSGSKSRSTATLTISSLQAEDEADYFCATADYSSSTVVFGSGTTLTVL
**Q.** How did the “virus neutralizing test” value turn out when B18 was run?
**A.** 1.43 µg/mL

B19: B82 (antibody, V domains shown)
VH: QVQLRESGPSLVKPSQTLSLTCTVSGFSLSNYAVGWVRQAPGKALEYLGGVRLRGRPDYNPALESRLSITKDNSKSQVSLSVSSVTLEDTATYYCAKSSSGLWDGGCCGGSTSCYVDSWGQGLLVTVSS
VL: QAVLTQPSSVSGSLGQRVSITCSGSSSNIGTYTVGWYQQVPGSGLRTIIYSNNNRPSGVPDRFSGSKSGNTATLTISSLQAEDEADYFCVTYESSISTALFGRGTTLTVL
**Q.** Which “virus neutralizing test” value does the source give for B19 here?
**A.** 4.17 µg/mL

B20: E18 (antibody, V domains shown)
VH: QVQLRESGPSLVTPSQTLSLTCAVSGGSLSTHDVVWVRQAPGRALEWVGGISSRGTTYYNPALKSRLSITQDLSKNQVSLSVGSVTPDDTATYYCAKDLCGGRINGCYNDGYYYSLRVDAWGQGLLVTVSS
VL: QAVLAQPSSVSGSLGQRVSITCSGSSNNIGSYGVGWYQQVPGSGLRTIIYGSSNRPSGVPDRFSGSKSGNTATLTISSLQAEDEADYFCAASDYSSNTVVFASGTTLTVL
**Q.** With B20 as the binder, how does the “virus neutralizing test” value read?
**A.** 0.78 µg/mL
